The text below walks through data of patent US12329823B2 (The Scripps Research Institute, priority 2021, dated 2025).

One data set concerns the target T1, mouse GLP1R (Mus musculus, UniProt O35659).
T1 sequence (O35659 22-463): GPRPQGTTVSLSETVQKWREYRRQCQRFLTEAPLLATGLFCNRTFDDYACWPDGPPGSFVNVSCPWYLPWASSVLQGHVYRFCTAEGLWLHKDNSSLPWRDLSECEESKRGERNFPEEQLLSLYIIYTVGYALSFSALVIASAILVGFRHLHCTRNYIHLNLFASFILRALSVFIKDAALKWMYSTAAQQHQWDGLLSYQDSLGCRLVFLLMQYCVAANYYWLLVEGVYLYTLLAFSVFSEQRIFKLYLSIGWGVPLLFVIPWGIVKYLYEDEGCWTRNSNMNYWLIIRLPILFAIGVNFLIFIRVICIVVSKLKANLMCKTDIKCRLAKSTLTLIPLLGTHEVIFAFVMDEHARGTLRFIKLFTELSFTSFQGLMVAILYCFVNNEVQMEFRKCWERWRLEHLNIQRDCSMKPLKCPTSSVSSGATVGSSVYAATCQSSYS
In words: In vitro potency, mouse GLP1R activation (receptor-mediated cAMP synthesis). It counts as cell-based. The following applies: Table 12. As to the method:
(§1) GLP-1R-CRE or HEK293-GIPR-CRE cells were seeded in 384-well plates at a density of 5000 cells per well and cultured for 18 h in DMEM with 10% FBS at 37° C. and 5% CO2. Cells were treated with peptides in a dose dependent manner for 24 h, and receptor activation was reported by luminescence intensities, using One-Glo (Promega, WI) luciferase reagent following manufacturer's instruction. The EC50 of each peptide was determined using GraphPad Prism 6 software (GraphPad, San Diego, CA). Results are depicted in FIGS. 6A-6B, FIGS. 7A-7B, FIGS. 8A-8B, FIGS. 9A-9B, and Tables 7-12. Measurements of peptide conjugate potency were expressed as half maximal effective concentration (EC50) values.

The nature of another data set: in vivo. The following applies: cynomolgus monkey.
The target in another data set is T2, human GIPR (Homo sapiens, UniProt P48546).
T2 construct: expressed in transfected cells; host or cells: HEK293 (CRE-HEK293, HEK293-GIPR-CRE)
T2 sequence (P48546 22-466): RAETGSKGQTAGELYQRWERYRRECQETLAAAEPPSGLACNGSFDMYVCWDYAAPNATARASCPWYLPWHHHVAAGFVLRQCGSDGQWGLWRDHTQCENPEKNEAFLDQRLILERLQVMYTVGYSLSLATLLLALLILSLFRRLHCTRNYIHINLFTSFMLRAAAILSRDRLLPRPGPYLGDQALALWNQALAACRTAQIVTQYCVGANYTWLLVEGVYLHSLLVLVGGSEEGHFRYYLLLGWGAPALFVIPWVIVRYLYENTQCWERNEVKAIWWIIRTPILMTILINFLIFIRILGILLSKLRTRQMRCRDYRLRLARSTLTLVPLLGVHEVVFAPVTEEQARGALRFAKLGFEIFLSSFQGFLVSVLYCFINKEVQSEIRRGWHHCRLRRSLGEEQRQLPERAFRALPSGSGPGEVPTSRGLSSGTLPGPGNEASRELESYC
Kind of data set: In vitro receptor activation reporter assay (CRE-Luc, HEK293-GIPR-CRE cells; receptor-mediated cAMP synthesis). Type of data set: cell-based.

The next data set deals with T3, dog GIPR (Canis lupus familiaris, UniProt A0A8I3MPG1).
T3 sequence (A0A8I3MPG1 24-449): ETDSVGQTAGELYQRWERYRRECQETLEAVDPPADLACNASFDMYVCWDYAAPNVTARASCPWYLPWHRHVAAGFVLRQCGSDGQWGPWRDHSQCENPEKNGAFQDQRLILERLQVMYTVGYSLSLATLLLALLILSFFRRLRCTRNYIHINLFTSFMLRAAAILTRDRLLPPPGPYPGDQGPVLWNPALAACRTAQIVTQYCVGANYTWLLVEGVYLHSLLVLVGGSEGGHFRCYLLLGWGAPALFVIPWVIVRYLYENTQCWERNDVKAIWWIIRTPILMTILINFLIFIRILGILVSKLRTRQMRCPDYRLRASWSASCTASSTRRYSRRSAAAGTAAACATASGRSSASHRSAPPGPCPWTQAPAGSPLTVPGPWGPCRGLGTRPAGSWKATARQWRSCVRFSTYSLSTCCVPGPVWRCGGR
Kind of data set: In vitro potency, dog GIPR activation (receptor-mediated cAMP synthesis). Type of data set: cell-based. The following applies: Table 12; read-out: In Vitro Potency GIPR EC50, Dog. As to the method:
as §1

The next data set addresses T4, mouse GIPR (Mus musculus, UniProt Q0P543).
T4 sequence (Q0P543 19-460): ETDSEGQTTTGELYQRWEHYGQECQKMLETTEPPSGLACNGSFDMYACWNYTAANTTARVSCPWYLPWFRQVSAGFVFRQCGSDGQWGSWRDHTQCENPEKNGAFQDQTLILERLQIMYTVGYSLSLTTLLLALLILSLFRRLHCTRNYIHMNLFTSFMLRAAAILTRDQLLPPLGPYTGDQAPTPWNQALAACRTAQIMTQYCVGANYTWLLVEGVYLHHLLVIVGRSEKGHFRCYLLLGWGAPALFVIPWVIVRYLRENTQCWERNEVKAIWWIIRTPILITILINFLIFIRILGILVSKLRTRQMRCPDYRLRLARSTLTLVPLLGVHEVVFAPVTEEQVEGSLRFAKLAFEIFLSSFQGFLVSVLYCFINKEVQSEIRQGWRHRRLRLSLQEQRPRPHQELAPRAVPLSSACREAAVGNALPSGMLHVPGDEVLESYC
In words: In vitro potency, mouse GIPR activation (receptor-mediated cAMP synthesis). It counts as cell-based. The note with it: Table 12.

Setting [1] is: In Vitro Potency GIPR EC50, 10% FBS, Table 11, human, 10% FBS.
Setting [2] is: Table 11, human, No Serum, read-out: In Vitro Potency GIPR EC50, No Serum.

Read-outs that look alike come from different tables or passages of the source.

Protocol for human GIPR: HEK293 cells were infected with lentivirus encoding firefly luciferase gene under the control of cAMP responsive element (CRE) promoter (Qiagen, The Netherlands) and then were selected using 1 μg mL^−1 puromycin (Life Technologies, Carlsbad) for 1 week. The surviving cells (referred to as CRE-HEK293) were expanded and then transfected with a G418 selective mammalian expression plasmid encoding human GLP-1R or GIPR. In brief, GLP-1R or GIPR plasmid was transfected into CRE-HEK293 cells using Lipofectamine 2000 and selected with 400 μg mL^−1 Geneticin (Life Technologies, Carlsbad, CA). Single colony stable cell line overexpressing CRE-luciferase and GLP-1R or GIPR (HEK293-GLP-1R-CRE or HEK293-GIPR-CRE) was then established for in vitro activity assay.

Regarding `CC[C@H](C)[C@H](NC(=O)[C@H](CC(C)C)NC(=O)[C@H](Cc1c[nH]c2ccccc12)NC(=O)[C@@H]1CSCC(=O)NCCN(C(=O)CCC(=O)NCCOCCOCCC(=O)NCCOCCOCCC(=O)NCCCC[C@H](NC(=O)CCCCCCCCCCCCCCCCC(=O)O)C(=O)O)CCNC(=O)CSC[C@H](NC(=O)[C@H](CCCCN)NC(=O)[C@H](CC(=O)O)NC(=O)[C@H](CC(C)C)NC(=O)[C@H](Cc2ccc(O)cc2)NC(=O)[C@@H](NC(=O)[C@H](CO)NC(=O)[C@H](Cc2ccc(O)cc2)NC(=O)[C@H](CC(=O)O)NC(=O)[C@H](CO)NC(=O)[C@@H](NC(=O)[C@H](Cc2ccccc2)NC(=O)[C@@H](NC(=O)CNC(=O)[C@H](CCC(=O)O)NC(=O)C(C)(C)NC(=O)[C@@H](N)Cc2ccc(O)cc2)[C@@H](C)O)[C@@H](C)O)[C@@H](C)CC)C(=O)N[C@@H](C)C(=O)N[C@@H](C)C(=O)NC(C)(C)C(=O)N[C@@H](CCC(=O)O)C(=O)N[C@@H](Cc2ccccc2)C(=O)N[C@@H](C(C)C)C(=O)N1)C(=O)N[C@@H](C)C(=O)NCC(=O)NCC(=O)N1CCC[C@H]1C(=O)N[C@@H](CO)C(=O)N[C@@H](CO)C(=O)NCC(=O)N[C@@H](C)C(=O)N1CCC[C@H]1C(=O)N1CCC[C@H]1C(=O)N1CCC[C@H]1C(=O)N[C@@H](CO)C(N)=O` [mCMZ371, YAibEGT-FTSDY-SIYLD-KXAAAib-EFVXW-LIAGG-PSSGA-PPPS-NH2 (where each X is C) (SEQ ID NO: 61)], the EC50 at mouse GLP1R stood at 0.09 nM. In the data set “in vivo”, the “t1/2 in cynomolgus monkeys (in words)” value was “long t1/2”. In “in vivo” (iv), this compound had an AUC(0-t) of 267 µg·h/mL, a T last of 240 h, a Vd of 0.0538 L/kg and a clearance of 18.1 mL/day/kg. In the data set “in vivo” (iv), this compound had a half-life of 60.2 h. Moreover, in the data set “in vivo” (sc), the AUC(0-t) came to 156 µg·h/mL, the concentration peaked (Cmax) at 1740 ng/mL, the T last stood at 240 h and the time of peak concentration (Tmax) was 24 h. In the data set “in vivo” (sc), this compound had a bioavailability of 58.5% and a half-life of 49.3 h. On human GIPR (setting [1]), this compound returned an EC50 of 0.04 ± 0.01 nM. Moreover, the EC50 on human GIPR (setting [2]) was 0.01 nM. In addition, on dog GIPR, the EC50 amounted to 0.47 nM. This compound also showed an EC50 at mouse GIPR of 0.27 nM.

Regarding `CC[C@H](C)[C@H](NC(=O)[C@H](CC(C)C)NC(=O)[C@H](Cc1c[nH]c2ccccc12)NC(=O)[C@@H]1CSCC(=O)NCCN(C(=O)CCC(=O)NCCOCCOCCC(=O)NCCOCCOCCC(=O)NCCCC[C@H](NC(=O)CCCCCCCCCCCCCCCCCCC(=O)O)C(=O)O)CCNC(=O)CSC[C@H](NC(=O)[C@H](CCCCN)NC(=O)[C@H](CC(=O)O)NC(=O)[C@H](CC(C)C)NC(=O)[C@H](Cc2ccc(O)cc2)NC(=O)[C@@H](NC(=O)[C@H](CO)NC(=O)[C@H](Cc2ccc(O)cc2)NC(=O)[C@H](CC(=O)O)NC(=O)[C@H](CO)NC(=O)[C@@H](NC(=O)[C@H](Cc2ccccc2)NC(=O)[C@@H](NC(=O)CNC(=O)[C@H](CCC(=O)O)NC(=O)C(C)(C)NC(=O)[C@@H](N)Cc2ccc(O)cc2)[C@@H](C)O)[C@@H](C)O)[C@@H](C)CC)C(=O)N[C@@H](C)C(=O)N[C@@H](C)C(=O)NC(C)(C)C(=O)N[C@@H](CCC(=O)O)C(=O)N[C@@H](Cc2ccccc2)C(=O)N[C@@H](C(C)C)C(=O)N1)C(=O)N[C@@H](C)C(=O)NCC(=O)NCC(=O)N1CCC[C@H]1C(=O)N[C@@H](CO)C(=O)N[C@@H](CO)C(=O)NCC(=O)N[C@@H](C)C(=O)N1CCC[C@H]1C(=O)N1CCC[C@H]1C(=O)N1CCC[C@H]1C(=O)N[C@@H](CO)C(N)=O` [mCMV268], the EC50 on mouse GLP1R came to 0.26 nM; at human GIPR (setting [1]) it was 0.09 ± 0.02 nM; on human GIPR (setting [2]), 0.01 ± 0.01 nM; at human GIPR (unnumbered table, average of runs, read-out: EC50 GIPR average), 0.04 nM; at human GIPR (unnumbered table, run 02/19, read-out: EC50 GIPR 02/19) it was 0.05 nM; on human GIPR (unnumbered table, run 03/25, read-out: EC50 GIPR 03/25), 0.04 nM. For the same compound, the EC50 at human GIPR (unnumbered table, run 03/26, read-out: EC50 GIPR 03/26) came out at 0.03 nM; at dog GIPR it was 0.42 nM; on mouse GIPR, 0.26 nM. In addition, the T last in “in vivo” (iv) and in the data set “in vivo” (sc) was 504 h in each case. The compound further had a distribution volume (Vd) in “in vivo” (iv) of 0.0612 L/kg. The compound further came in with a clearance in “in vivo” (iv) of 20.2 mL/day/kg. In addition, the values for the half-life in “in vivo” (iv) and in the data set “in vivo” (sc) were 58.8 h and 60.5 h, respectively. For the same compound, the AUC(0-t) in “in vivo” (sc) worked out at 438 µg·h/mL. The compound also gave a maximum concentration (Cmax) in the data set “in vivo” (sc) of 3930 ng/mL. Further, the Tmax in the data set “in vivo” (sc) was 14.7 h. Also, the bioavailability in the data set “in vivo” (sc) came to 73.7%.
